Results on two molecules are retold here after patent EP2954933A1 (3B Pharmaceuticals GmbH, dated 2015).

*1 amine or outer side, *2 acyl side, *3 side chain or, on linkers, in order; H or OH if unused. [ ]: non-standard residue; d: D form. Lys(DOTA) = Lys with DOTA chelator on the side chain; Oic = O=C(O)[C@@H]1C[C@@H]2CCCC[C@@H]2N1; d2Nal = N[C@H](Cc1ccc2ccccc2c1)C(=O)O; Glutaryl = O=C(CCCC(=O)[*:2])[*:1]; αMeF = C[C@](N)(Cc1ccccc1)C(=O)O; Ttds = non-natural spacer; Orn = NCCC[C@H](N)C(=O)O; 1206 = not defined here; GABA = NCCCC(=O)O

The target in the test is T1, bradykinin B1 receptor (human) (UniProt P46663).
T1 sequence (looked up): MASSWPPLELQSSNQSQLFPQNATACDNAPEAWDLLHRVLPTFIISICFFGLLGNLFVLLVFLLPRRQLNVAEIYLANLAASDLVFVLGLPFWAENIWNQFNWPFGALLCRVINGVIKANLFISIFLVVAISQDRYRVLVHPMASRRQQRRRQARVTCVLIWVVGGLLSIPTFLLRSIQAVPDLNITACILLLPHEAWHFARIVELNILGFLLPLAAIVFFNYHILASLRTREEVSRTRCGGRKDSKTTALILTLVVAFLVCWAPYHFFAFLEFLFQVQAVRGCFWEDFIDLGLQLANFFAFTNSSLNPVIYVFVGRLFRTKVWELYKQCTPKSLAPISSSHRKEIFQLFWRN
The test can be described thus: radioligand displacement: 0.35 nM [3H]desArg10-KD on human B1R from CHO cells, compound at 100 nM.

B1: 1206-Glutar-Ttds-Lys(DOTA)-Ttds-GABA-Lys-Arg-Pro-Hyp-Gly-Cha-Ser-Pro-Leu-OH (peptide)
peptide: KRPXGXSPL
modifications: position 4 = Hyp (hydroxyproline); position 6 = Cha (cyclohexylalanine); N-terminus of Lys1 acylated with 1206-Glutar-Ttds-Lys(DOTA)-Ttds-GABA- (1206 = non-peptide NTR1 antagonist moiety; DOTA on the Lys side chain); free C-terminal …
B1: the Inhibition [at 100 nM, %] is 20%.

B2: 1206-Glutar-Ttds-Lys(DOTA)-Ttds-GABA-Orn-Arg-Oic-Pro-Gly-Amf-Ser-nal-Ile-OH (peptide)
peptide: {1206-Glutaryl-Ttds-Lys(DOTA)-Ttds-GABA}-[Orn]R[Oic]PG[αMeF]S[d2Nal]I-OH
modifications: reading uncertain; also: printed as 1206-Glutar-Ttds-Lys(DOTA)-Ttds-GABA-Orn-Arg-Oic-Pro-Gly-Amf-Ser-nal-Ile-OH
B2 yielded an Inhibition [at 100 nM, %] of 17%.
